In the supplement of paper PMC9112550, “Optimization of the antimicrobial peptide Bac7 by deep mutational scanning” (BMC Biology, 2022):

Test system: Escherichia coli TOP10
Assay: shrunken log2 fold change of peptide-encoding DNA abundance (4.5 h post-induction vs induction); higher = less antimicrobial activity (less host growth inhibition)
Conditions: time post-induction: 4.5 h; library: site-saturation at positions 5, 18, 19, 20
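Further: peptides expressed intracellularly from a pBAD plasmid library in pooled LB shake-flask culture, induced with 0.3% L-arabinose, DNA abundance read by NGS, three biological replicates, DESeq2 with apeglm shrinkage.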

| Sequence | shrunken log2 fold change |
| --- | --- |
| RRIRMRPPRLPRPRPRPEIYPRP | 0.106 |
| RRIRTRPPRLPRPRPRPFGHPRP | -0.145 |
| RRIRCRPPRLPRPRPRPNSKPRP | 0.297 |
| RRIRERPPRLPRPRPRPLSLPRP | -0.371 |
| RRIRNRPPRLPRPRPRPSTAPRP | -0.28 |
| RRIRLRPPRLPRPRPRPGLQPRP | -0.166 |
| RRIRDRPPRLPRPRPRPMARPRP | 0.0954 |
| RRIRPRPPRLPRPRPRPGKCPRP | -0.125 |
| RRIRMRPPRLPRPRPRPFYAPRP | -0.47 |
| RRIRYRPPRLPRPRPRPRTFPRP | -0.757 |
| RRIRNRPPRLPRPRPRPLNSPRP | -0.162 |
| RRIRPRPPRLPRPRPRPKKRPRP | 0.136 |
| RRIRSRPPRLPRPRPRPTQPPRP | 0.215 |
| RRIRKRPPRLPRPRPRPWLSPRP | 0.0773 |
| RRIRYRPPRLPRPRPRPRFPPRP | -0.448 |
| RRIRCRPPRLPRPRPRPEDAPRP | -0.0302 |
| RRIRKRPPRLPRPRPRPLCNPRP | 1.06 |
| RRIRCRPPRLPRPRPRPEEEPRP | 0.375 |
| RRIRDRPPRLPRPRPRPMNLPRP | -0.1 |
| RRIRERPPRLPRPRPRPMTWPRP | 0.0575 |
| RRIRWRPPRLPRPRPRPEMCPRP | -0.0695 |
| RRIRTRPPRLPRPRPRPHMTPRP | -0.265 |
| RRIRERPPRLPRPRPRPNTPPRP | 0.0861 |
| RRIRGRPPRLPRPRPRPKDTPRP | 0.61 |
| RRIRPRPPRLPRPRPRPGISPRP | -0.155 |

| Sequence | shrunken log2 fold change |
| --- | --- |
| RRIRKRPPRLPRPRPRPYCIPRP | -0.0175 |
| RRIRVRPPRLPRPRPRPVGHPRP | -0.166 |
| RRIRPRPPRLPRPRPRPHLMPRP | -0.0526 |
| RRIRCRPPRLPRPRPRPAGFPRP | 0.1 |
| RRIRRRPPRLPRPRPRPAWAPRP | 0.791 |
| RRIRCRPPRLPRPRPRPRIDPRP | 0.117 |
| RRIRARPPRLPRPRPRPHKFPRP | -0.0967 |
| RRIRDRPPRLPRPRPRPKWTPRP | 0.0796 |
| RRIRWRPPRLPRPRPRPDNRPRP | -0.213 |
| RRIRDRPPRLPRPRPRPVRRPRP | 0.971 |
| RRIRHRPPRLPRPRPRPCRRPRP | -0.131 |
| RRIRRRPPRLPRPRPRPAIMPRP | 0.275 |
| RRIRERPPRLPRPRPRPSCGPRP | 0.0151 |
| RRIRRRPPRLPRPRPRPYNLPRP | -0.233 |
| RRIRVRPPRLPRPRPRPCTRPRP | -0.214 |
| RRIRLRPPRLPRPRPRPDMKPRP | -0.286 |
| RRIRIRPPRLPRPRPRPKFFPRP | -0.116 |
| RRIRKRPPRLPRPRPRPPPFPRP | 0.442 |
| RRIRTRPPRLPRPRPRPNPDPRP | -0.0402 |
| RRIRMRPPRLPRPRPRPCHQPRP | -0.0062 |
| RRIRGRPPRLPRPRPRPDNAPRP | 0.364 |
| RRIRFRPPRLPRPRPRPCPIPRP | -0.488 |
| RRIRRRPPRLPRPRPRPRLPPRP | 0.663 |
| RRIRDRPPRLPRPRPRPVHAPRP | 0.209 |
| RRIRRRPPRLPRPRPRPDRYPRP | -0.0438 |

| Sequence | shrunken log2 fold change |
| --- | --- |
| RRIRYRPPRLPRPRPRPLLYPRP | -0.94 |
| RRIRKRPPRLPRPRPRPTVFPRP | 0.0385 |
| RRIRLRPPRLPRPRPRPWSTPRP | -0.137 |
| RRIRDRPPRLPRPRPRPMPSPRP | 0.026 |
| RRIRNRPPRLPRPRPRPVKVPRP | -0.0708 |
| RRIRNRPPRLPRPRPRPAHTPRP | 0.121 |
| RRIRWRPPRLPRPRPRPHQQPRP | -0.0485 |
| RRIRPRPPRLPRPRPRPKKIPRP | 0.0064 |
| RRIRQRPPRLPRPRPRPNQRPRP | 0.0738 |
| RRIRFRPPRLPRPRPRPFPNPRP | -0.0354 |
| RRIRVRPPRLPRPRPRPPKMPRP | -0.0776 |
| RRIRERPPRLPRPRPRPFYMPRP | -0.167 |
| RRIRHRPPRLPRPRPRPTPRPRP | 0.609 |
| RRIRLRPPRLPRPRPRPWQMPRP | 0.123 |
| RRIRRRPPRLPRPRPRPSVPPRP | 0.063 |
| RRIRHRPPRLPRPRPRPEHVPRP | 0.0342 |
| RRIRVRPPRLPRPRPRPWDVPRP | -0.0177 |
| RRIRGRPPRLPRPRPRPGNSPRP | 0.131 |
| RRIRPRPPRLPRPRPRPVTEPRP | -0.027 |
| RRIRGRPPRLPRPRPRPWLKPRP | -0.24 |
| RRIRGRPPRLPRPRPRPTQCPRP | 0.222 |
| RRIRARPPRLPRPRPRPPSPPRP | 0.669 |
| RRIRVRPPRLPRPRPRPLRPPRP | 0.97 |
| RRIRARPPRLPRPRPRPLTHPRP | 0.227 |
| RRIRHRPPRLPRPRPRPVQIPRP | -0.0126 |

| Sequence | shrunken log2 fold change |
| --- | --- |
| RRIRERPPRLPRPRPRPGEVPRP | 0.0814 |
| RRIRFRPPRLPRPRPRPEGHPRP | 0.0933 |
| RRIRIRPPRLPRPRPRPGVPPRP | -0.0807 |
| RRIRYRPPRLPRPRPRPHPMPRP | -0.191 |
| RRIRHRPPRLPRPRPRPMSVPRP | -0.294 |
| RRIRNRPPRLPRPRPRPVMQPRP | -0.187 |
| RRIRLRPPRLPRPRPRPSRTPRP | -0.204 |
| RRIRTRPPRLPRPRPRPMLPPRP | -0.0543 |
| RRIRIRPPRLPRPRPRPLVGPRP | -0.0442 |
| RRIRHRPPRLPRPRPRPRMWPRP | -0.237 |
| RRIRFRPPRLPRPRPRPVHCPRP | -0.0193 |
| RRIRMRPPRLPRPRPRPWGFPRP | 0.0809 |
| RRIRARPPRLPRPRPRPSFCPRP | 0.167 |
| RRIRKRPPRLPRPRPRPNENPRP | 0.304 |
| RRIRQRPPRLPRPRPRPALVPRP | 0.297 |
| RRIRGRPPRLPRPRPRPEPDPRP | 1.27 |
| RRIRVRPPRLPRPRPRPHPMPRP | -0.15 |
| RRIRMRPPRLPRPRPRPFWRPRP | 0.463 |
| RRIRIRPPRLPRPRPRPDDLPRP | 0.118 |
| RRIRHRPPRLPRPRPRPYVKPRP | -0.509 |
| RRIRMRPPRLPRPRPRPCTYPRP | -0.00141 |
| RRIRWRPPRLPRPRPRPYCFPRP | -0.379 |
| RRIRPRPPRLPRPRPRPSSQPRP | -0.201 |
| RRIRTRPPRLPRPRPRPTYNPRP | -0.593 |
| RRIRDRPPRLPRPRPRPGHVPRP | -0.0651 |

| Sequence | shrunken log2 fold change |
| --- | --- |
| RRIRGRPPRLPRPRPRPFRGPRP | -0.0655 |
| RRIRYRPPRLPRPRPRPPPQPRP | 0.776 |
| RRIRERPPRLPRPRPRPMRMPRP | -0.0542 |
| RRIRSRPPRLPRPRPRPYIVPRP | -0.646 |
| RRIRQRPPRLPRPRPRPLCAPRP | 0.172 |
| RRIRNRPPRLPRPRPRPHNNPRP | -1.05 |
| RRIRERPPRLPRPRPRPKDIPRP | 0.0209 |
| RRIRSRPPRLPRPRPRPELEPRP | 0.54 |
| RRIRFRPPRLPRPRPRPEYWPRP | -0.245 |
| RRIRFRPPRLPRPRPRPYQRPRP | -0.238 |
| RRIRQRPPRLPRPRPRPHVKPRP | -0.274 |
| RRIRRRPPRLPRPRPRPNNDPRP | -0.358 |
| RRIRIRPPRLPRPRPRPQICPRP | -0.0396 |
| RRIRPRPPRLPRPRPRPWPYPRP | 0.0948 |
| RRIRYRPPRLPRPRPRPQENPRP | -0.00441 |
| RRIRERPPRLPRPRPRPVPGPRP | 0.186 |
| RRIRMRPPRLPRPRPRPCGPPRP | 0.481 |
| RRIRSRPPRLPRPRPRPECFPRP | 3.03 |
| RRIRNRPPRLPRPRPRPHGCPRP | -0.0193 |
| RRIRFRPPRLPRPRPRPVDKPRP | -0.022 |
| RRIRERPPRLPRPRPRPKMGPRP | 0.00452 |
| RRIRGRPPRLPRPRPRPDRRPRP | -0.12 |
| RRIRVRPPRLPRPRPRPCGVPRP | -0.0743 |
| RRIRMRPPRLPRPRPRPPIDPRP | 0.0677 |
| RRIRDRPPRLPRPRPRPPYTPRP | -0.0539 |
